B1: 14-3-3 protein sigma (Homo sapiens), P31947 (parent)
chain: MERASLIQKAKLAEQAERYEDMAAFMKGAVEKGEELSCEERNLLSVAYKNVVGGQRAAWRVLSSIEQKSNEEGSEEKGPEVREYREKVETELQGVCDTVLGLLDSHLIKEAGDAESRVFYLKMKGDYYRYLAEVATGDDKKRIIDSARSAYQEAMDISKKEMPPTNPIRLGLALNFSVFHYEIANSPEEAISLAKTTFDEAMADLHTLSEDSYKDSTLIMQLLRDNLTLWTADNAGEEGGEAPQEPQS
partner: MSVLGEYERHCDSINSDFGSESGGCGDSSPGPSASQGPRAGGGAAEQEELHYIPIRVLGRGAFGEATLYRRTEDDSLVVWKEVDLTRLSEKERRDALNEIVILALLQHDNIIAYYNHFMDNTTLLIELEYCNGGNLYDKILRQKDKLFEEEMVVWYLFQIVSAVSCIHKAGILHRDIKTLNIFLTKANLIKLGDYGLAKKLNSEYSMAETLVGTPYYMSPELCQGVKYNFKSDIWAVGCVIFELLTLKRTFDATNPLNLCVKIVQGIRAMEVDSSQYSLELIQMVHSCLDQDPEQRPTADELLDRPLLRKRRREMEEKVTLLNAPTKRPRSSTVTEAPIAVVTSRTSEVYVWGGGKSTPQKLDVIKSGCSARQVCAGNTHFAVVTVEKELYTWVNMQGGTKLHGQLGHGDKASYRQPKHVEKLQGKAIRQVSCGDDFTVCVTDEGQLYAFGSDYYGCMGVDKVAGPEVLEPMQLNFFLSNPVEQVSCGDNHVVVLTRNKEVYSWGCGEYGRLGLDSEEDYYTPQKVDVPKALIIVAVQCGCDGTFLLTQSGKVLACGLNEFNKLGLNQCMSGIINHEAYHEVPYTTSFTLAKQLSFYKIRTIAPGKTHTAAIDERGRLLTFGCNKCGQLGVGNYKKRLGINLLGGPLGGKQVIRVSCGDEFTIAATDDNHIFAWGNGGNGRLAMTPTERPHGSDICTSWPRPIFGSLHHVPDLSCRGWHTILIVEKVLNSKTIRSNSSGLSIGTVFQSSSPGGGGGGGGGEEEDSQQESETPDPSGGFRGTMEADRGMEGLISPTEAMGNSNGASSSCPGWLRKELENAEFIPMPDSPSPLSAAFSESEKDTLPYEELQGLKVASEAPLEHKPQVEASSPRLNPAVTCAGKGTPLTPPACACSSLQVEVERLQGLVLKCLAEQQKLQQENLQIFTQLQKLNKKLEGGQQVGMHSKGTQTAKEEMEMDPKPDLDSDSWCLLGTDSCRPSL
B2: 14-3-3 protein sigma (Homo sapiens), P31947 (parent)
chain: B1 chain
partner: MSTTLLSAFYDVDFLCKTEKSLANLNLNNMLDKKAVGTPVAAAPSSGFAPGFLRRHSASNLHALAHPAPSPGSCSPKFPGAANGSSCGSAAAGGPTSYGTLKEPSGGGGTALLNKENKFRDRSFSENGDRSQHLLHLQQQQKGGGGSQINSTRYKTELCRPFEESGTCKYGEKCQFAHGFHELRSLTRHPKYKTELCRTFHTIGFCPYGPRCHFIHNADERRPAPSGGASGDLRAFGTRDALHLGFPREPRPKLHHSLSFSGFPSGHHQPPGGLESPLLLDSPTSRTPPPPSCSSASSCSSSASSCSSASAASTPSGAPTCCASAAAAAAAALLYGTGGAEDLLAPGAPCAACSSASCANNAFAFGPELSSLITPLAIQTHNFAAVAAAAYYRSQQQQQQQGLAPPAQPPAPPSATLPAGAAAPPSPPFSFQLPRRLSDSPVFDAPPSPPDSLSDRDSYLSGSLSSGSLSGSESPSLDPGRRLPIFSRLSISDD
B3: 14-3-3 protein sigma (Homo sapiens), P31947 (parent)
chain: B1 chain
partner: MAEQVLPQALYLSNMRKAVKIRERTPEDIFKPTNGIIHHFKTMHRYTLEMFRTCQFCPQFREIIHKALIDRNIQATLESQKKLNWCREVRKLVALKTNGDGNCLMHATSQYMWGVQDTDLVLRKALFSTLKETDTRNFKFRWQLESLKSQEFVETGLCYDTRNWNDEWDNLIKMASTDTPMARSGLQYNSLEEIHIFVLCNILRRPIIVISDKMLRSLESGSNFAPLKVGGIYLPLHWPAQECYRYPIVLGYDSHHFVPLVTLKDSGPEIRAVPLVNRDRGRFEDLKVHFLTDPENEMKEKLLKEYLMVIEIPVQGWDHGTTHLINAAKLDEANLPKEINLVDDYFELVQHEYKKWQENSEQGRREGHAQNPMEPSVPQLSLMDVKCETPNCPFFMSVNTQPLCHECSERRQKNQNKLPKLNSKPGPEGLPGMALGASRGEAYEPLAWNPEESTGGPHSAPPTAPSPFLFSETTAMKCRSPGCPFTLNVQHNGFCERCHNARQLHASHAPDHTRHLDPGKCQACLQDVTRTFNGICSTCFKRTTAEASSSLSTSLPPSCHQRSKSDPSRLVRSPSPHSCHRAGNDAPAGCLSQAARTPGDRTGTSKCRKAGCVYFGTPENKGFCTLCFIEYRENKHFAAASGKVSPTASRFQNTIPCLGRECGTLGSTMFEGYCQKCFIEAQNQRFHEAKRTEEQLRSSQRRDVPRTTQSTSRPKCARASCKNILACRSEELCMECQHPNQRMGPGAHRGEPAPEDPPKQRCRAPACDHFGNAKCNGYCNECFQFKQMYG
B4: 14-3-3 protein sigma (Homo sapiens), P31947 (parent)
chain: B1 chain
partner: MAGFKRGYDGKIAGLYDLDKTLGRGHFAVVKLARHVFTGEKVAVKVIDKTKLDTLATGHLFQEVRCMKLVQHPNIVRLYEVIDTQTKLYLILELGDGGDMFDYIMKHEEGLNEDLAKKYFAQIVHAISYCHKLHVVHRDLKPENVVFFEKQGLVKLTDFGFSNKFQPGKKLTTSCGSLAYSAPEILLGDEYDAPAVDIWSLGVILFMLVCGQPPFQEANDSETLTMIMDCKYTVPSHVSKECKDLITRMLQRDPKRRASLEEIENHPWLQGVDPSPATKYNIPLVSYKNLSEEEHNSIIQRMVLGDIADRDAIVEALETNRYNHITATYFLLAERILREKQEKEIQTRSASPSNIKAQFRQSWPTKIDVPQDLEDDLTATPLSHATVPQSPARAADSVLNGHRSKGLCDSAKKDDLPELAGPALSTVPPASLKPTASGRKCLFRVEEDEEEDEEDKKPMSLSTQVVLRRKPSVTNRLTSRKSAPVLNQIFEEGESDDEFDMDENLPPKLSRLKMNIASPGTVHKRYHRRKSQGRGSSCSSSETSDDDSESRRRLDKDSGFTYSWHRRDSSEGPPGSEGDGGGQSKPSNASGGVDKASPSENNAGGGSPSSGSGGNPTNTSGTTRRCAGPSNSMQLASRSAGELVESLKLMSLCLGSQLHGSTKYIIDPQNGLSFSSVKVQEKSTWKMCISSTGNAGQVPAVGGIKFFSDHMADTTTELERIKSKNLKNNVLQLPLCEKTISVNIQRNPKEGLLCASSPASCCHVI
B5: 14-3-3 protein sigma (Homo sapiens), P31947 (parent)
chain: B1 chain
partner: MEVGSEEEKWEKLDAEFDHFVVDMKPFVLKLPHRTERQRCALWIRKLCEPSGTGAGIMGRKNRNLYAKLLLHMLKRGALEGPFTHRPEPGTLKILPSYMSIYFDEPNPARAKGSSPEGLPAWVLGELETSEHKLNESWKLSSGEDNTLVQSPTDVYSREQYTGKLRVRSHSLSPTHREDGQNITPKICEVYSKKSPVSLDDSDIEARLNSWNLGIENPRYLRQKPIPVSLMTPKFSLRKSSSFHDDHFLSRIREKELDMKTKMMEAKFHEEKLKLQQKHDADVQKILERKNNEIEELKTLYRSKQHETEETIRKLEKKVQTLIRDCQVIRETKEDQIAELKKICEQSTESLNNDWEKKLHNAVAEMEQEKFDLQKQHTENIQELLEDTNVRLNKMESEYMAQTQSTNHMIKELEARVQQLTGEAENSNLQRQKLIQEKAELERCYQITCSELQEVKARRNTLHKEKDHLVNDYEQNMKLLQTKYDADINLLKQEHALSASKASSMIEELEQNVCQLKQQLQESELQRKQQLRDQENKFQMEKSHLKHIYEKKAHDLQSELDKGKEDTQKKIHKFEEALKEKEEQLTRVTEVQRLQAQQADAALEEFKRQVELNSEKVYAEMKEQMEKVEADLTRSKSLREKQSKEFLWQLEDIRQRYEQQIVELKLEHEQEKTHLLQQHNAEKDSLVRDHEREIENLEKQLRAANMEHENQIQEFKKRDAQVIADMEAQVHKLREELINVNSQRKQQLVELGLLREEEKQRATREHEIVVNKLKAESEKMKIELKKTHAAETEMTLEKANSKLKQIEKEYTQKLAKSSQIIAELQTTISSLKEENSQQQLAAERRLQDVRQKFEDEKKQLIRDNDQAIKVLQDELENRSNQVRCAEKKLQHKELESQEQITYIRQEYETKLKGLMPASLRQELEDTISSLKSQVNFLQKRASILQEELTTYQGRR
B6: 14-3-3 protein sigma (Homo sapiens), P31947 (parent)
chain: B1 chain
partner: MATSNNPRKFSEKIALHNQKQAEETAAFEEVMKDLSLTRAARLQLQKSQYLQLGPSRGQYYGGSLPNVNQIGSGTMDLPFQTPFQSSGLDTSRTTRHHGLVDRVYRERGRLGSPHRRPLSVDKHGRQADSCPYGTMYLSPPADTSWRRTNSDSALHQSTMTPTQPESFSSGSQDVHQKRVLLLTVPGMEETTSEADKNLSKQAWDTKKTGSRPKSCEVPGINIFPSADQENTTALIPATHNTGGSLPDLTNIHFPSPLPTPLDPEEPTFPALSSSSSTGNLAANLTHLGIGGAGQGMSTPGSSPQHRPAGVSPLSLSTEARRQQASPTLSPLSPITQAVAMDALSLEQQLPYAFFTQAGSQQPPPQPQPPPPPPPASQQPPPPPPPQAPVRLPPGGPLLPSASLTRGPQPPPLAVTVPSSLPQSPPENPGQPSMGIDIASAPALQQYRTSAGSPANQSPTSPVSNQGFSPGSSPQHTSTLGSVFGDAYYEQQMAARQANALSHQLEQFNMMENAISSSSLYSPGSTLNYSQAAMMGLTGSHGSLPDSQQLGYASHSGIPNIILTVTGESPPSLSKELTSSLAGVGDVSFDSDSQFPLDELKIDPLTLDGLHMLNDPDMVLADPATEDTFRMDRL

Variants of: B1
Settings: with nek9_human NEK9, Q8TD19

Variant | effect of a mutation on the interaction
K49E;R56E;V178D | decreasing interaction strength

Variants of: B2
Settings: with tisd_human ZFP36L2, P47974

effect of a mutation on the interaction | Variant
decreasing interaction strength | K49E;R56E;V178D

Variants of: B3
Settings: with tnap3_human TNFAIP3, P21580

effect of a mutation on the interaction | Variant
decreasing interaction strength | K49E;R56E;V178D

Variants of: B4
Settings: with snrk_human SNRK

effect of a mutation on the interaction | Variant
decreasing interaction strength | K49E;R56E;V178D

Variants of: B5
Settings: with ce112_human CEP112, Q8N8E3

effect of a mutation on the interaction | Variant
decreasing interaction strength | K49E;R56E;V178D

Variants of: B6
Settings: with crtc1_human CRTC1, Q6UUV9

effect of a mutation on the interaction | Variant
decreasing interaction strength | K49E;R56E;V178D
